Assay results as given in patent US20240262878A1, “PHOTOACTIVATABLE GASDERMIN PROTEINS” (THE BOARD OF TRUSTEES OF THE UNIVERSITY OF ILLINOIS, priority 2021, published 2024).
Entries after “also recorded” stand apart in the source; their conditions may differ.

Legend:
Type in all cases: cell-based
Hela cells [1] = experiment: Optogenetic activation of PhoDer, membrane-targeted jRCaMP1b calcium flare imaging and fluctuation analysis
Procedure: Cloning. Cloning and subcloning were performed using the DH5a strain of E. coli. All mammalian constructs were cloned into the pcDNA3.0 vector with a modified multiple cloning site. Plasmids were generated as follows. Gasdermin D gene was obtained from Addgene. A diffusible optogenetic GSDMD, referred to herein as “PhoDer” and set forth in SEQ ID NO: 33, was constructed according to the reported domains structure by ligating three fragments into the pcDNA3.0 vector in one reaction via Gibson Assembly (New England BioLabs). For each fragment, PCR was specifically designed to create appropriate complementation. The jRCaMP1b gene, encoding a sensitive red protein calcium indicator, was obtained from Addgene. Membrane targeted calcium indicator jRCaMP1b was constructed by ligating a PCR fragment of the calcium indicator into the restriction enzyme sites BamHI and EcoRI in a modified pcDNA3.0 vector carrying a 5′ fragment encoding the N-terminal Lyn kinase localization sequence.
(§1) Cell Culture. HeLa and RAW264.7 cells were maintained in Dulbecco's Modified Eagle Medium (DMEM) medium supplemented with 10% fetal bovine serum (FBS) and 1% penicillin and streptomycin. Cells were transfected at 50%-70% confluency using LIPOFECTAMINE® 2000 transfection reagent and incubated for 24 hours before imaging. Cells were never serum-starved. To examine endogenous inflammatory activation, RAW264.7 cells were treated with 100 ng/μL lipopolysaccharide (LPS, Invivogen) at the beginning of each experiment. Pretreatment to bias membrane composition by phosphatidylinositol 4,5-bisphosphate (PIP2) modifying enzymes was performed by incubating Hela cells in Hanks' Balanced Salt Solution (HBSS) buffer with inhibitors at 37° C. for 10 minutes to prior imaging at the following concentrations: for phosphoinositide 3-kinase (PI3K), cells were treated 10 μM wortmannin (Tocris); and for phospholipase C (PLC), cells were treated with 10 μM U73122 (Tocris). Cells were removed from the incubator and allowed to come to thermal equilibrium before being imaged in HBSS buffer at room temperature.
Fluorescence Imaging, Optogenetic Activation, and Post-Processing. All epifluorescence imaging was performed on a customized Nikon Ti2-E microscope equipped with individual control over excitation (EX) and emission (EM) filters, a fast LED light source (Lumencor) with fluid-cooled EMCCD (Andor), motorized stage, and examined under a 40× or 100× oil immersion objective under live focus tracking. For RFP, excitation (EX) and emission (EM) filter combinations (maxima/bandwidth in nm) are indicated. Cells were imaged at 12-15 second intervals. Emission intensities of individual cells were background-subtracted before normalization to zero time point, when optogenetic activation began. In the optical setup, optogenetic activation of PhoDer was performed using an EX filter at 440/20 nm for 20-30 ms across whole fields of view. This replicated the progression of endogenous activation of GSDMD observed in LPS-stimulated RAW264.7 cells. […] Where applicable, inhibitors were treated at the indicated concentration for 15 minutes prior to imaging.
Fluctuation Analysis and Quantification. To automate the objective isolation and quantitation of calcium flares, a post-processing algorithm was developed based on principles and normalization scheme detailed in work on photochromic stochastic optical fluctuation imaging (pcSOFI) (Dedecker et al. (2012) Proc. Natl. Acad. Sci. USA 109: 10909-10914). Briefly, fluctuation caused by the flares generate high autocorrelation signals in time-averaged series and yield high contrast at locales of the greatest ion flux. To truly reflect the local flux change, it is then normalized to remove dependence on the number of biosensors reporting at the given location using a scheme detailed previously (Mo et al. (2017) Nat. Methods 14 (4): 427-434). […]

[2] = tested on: RAW264.7 and mouse bone marrow-derived macrophages (BMDM); experiment: Optogenetic activation of PhoDer in transiently transfected macrophages, calcium response; conditions: transiently transfected RAW264.7 and mouse BMDM
Procedure: as §1
Fluorescence Imaging, Optogenetic Activation, and Post-Processing. […]

Hela cells [3] = experiment: Modulating molecular transport of a cell by light activation of PhoDer (GFP efflux, phalloidin influx, antibody delivery)
Procedure: Using the PhoDer protein, it was determined whether a large molecule, i.e., an impermeable dye, fluorescent protein or an IgG antibody, could be transported into or out of a living cell via light-inducible activation of the PhoDer construct.
GFP Efflux. Cells expressing GFP were transfected with the PhoDer protein and illuminated intermittently for 1 hour. Over time the gasdermin pore grew larger and GFP fluorescence was captured on a fluorescence microscope using a 40× objective.
Phalloidin Influx. Phalloidin is a cell impermeable dye used in the labeling of F-actin. Cells were transfected with the PhoDer protein and contacted with phalloidin in the cell medium. The cells were subsequently illuminated and permeation of the phalloidin was monitored. […] As such, control gasdermin pore formation was capable of mediating cargo delivery in the absence of cell death.
Antibody Delivery. Hela cells expressing PhoDer were placed in medium containing a fluorescently tagged anti-tubulin monoclonal IgG antibody (˜150 kDa, ˜14 nm in size). Before exposure to light, antibody fluorescence was evident in the medium. […] Super-resolution imaging of the cells was carried out using STORM (Stochastic Optical Reconstruction Microscopy). […] Advantageously, the cells remained intact and alive thereby allowing for analysis of cytoskeletal tubulin and nuclear tubulin. […] Given that cytoskeletal and nuclear tubulin have distinct functions apart from their structural roles in forming microtubules, delivery of the anti-tubulin antibody via the present invention allows for further subcellular analysis of tubulin in living cells.

B1: PhoDer: optogenetically activatable human GSDMD with photocleavable linker between N- and C-terminal domains, SEQ ID NO: 33 (protein)
chain: MGSAFERVVRRVVQELDHGGEFIPVTSLQSSTGFQPYCLVVRKPSSSWFWKPRYKCVNLSIKDILEPDAAEPDVQRGRSFHFYDAMDGQIQGSVELAAPGQAKIAGGAAVSDSSSTSMNVYSLSVDPNTWQTLLHERHLRQPEHKVLQQLRSRGDNVYVVTEVLQTQKEVEVTRTHKREGSGRFSLPGATCLQGEGQGHLSQKKTVTIPSGSTLAFRVAQLVIDSDLDVLLFPDKKQRTFQPPATGHKRSTSEGAWPQLPSGLSMMRCLHNGGGSVIPDYFKQSFPEGYSWERSMTYEDGGICIATNDITMEGDSFINKIHFKGTNFPPNGPVMQKRTVGWEASTEKMYERDGVLKGDVKMKLLLKGGGHYRCDYRTTYKVKQKPVKLPDYHFVDHRIEILSHDKDYNKVKLYEHAVARNSTDSMDELYKGGSGGMVSKGEETITSVIKPDMKNKLRMEGNVNGHAFVIEGEGSGKPFEGIQTIDLEVKEGAPLPFAYDILTTAFHYGNRVFTKYPRGGGVPAEGAFTEDFQGLRAEVETISKELELLDRELCQLLLEGLEGVLRDQLALRALEEALEQGQSLGPVEPLDGPAGAVLECLVLSSGMLVPELAIPVVYLLGALTMLSETQHKLLAEALESQTLLGPLELVGSLLEQSAPWQERSTMSLPPGLLGNSWGEGAPAWVLLDECGLELGEDTPHVCWEPQAQGRMCALYASLALLSGLSQEPH
modifications: photocleavable linker
Hela cells [1]
  average circularity (minor/major radii ratio) of the flares: 0.75
  pores that persisted after the mean open time and reopened: ~57%
Hela cells [1]; Hela cells expressing PhoDer, membrane-targeted jRCaMP1b
  calcium response upon optogenetic activation: caused spontaneous calcium flares at sporadic locations on the plasma membrane
Hela cells [1]; average, n=21 pores
  time in which calcium flares maximized: 0.35 min
Hela cells [1]; mean of n=21, R^2=0.996
  cooperative coefficient of pore closing: 0.73
Hela cells [1]; n=21 pores
  average time pores were open: 1.55 min
  mean diameter reached by calcium flares: ~10 μm
[2]
  calcium response upon optogenetic activation: initiated clearly localized transient calcium flares
Hela cells [3]
  time cells observed intact and adherent after antibody delivery: at least 24 hours
Hela cells [3]; Hela cells, about 5 minute blue-light activation
  delivery of fluorescently tagged anti-tubulin monoclonal IgG antibody: the fluorescent antibody was delivered into the interior of the cell
Hela cells [3]; blue-light activation
  cell lysis after phalloidin delivery (calcium imaging): did not lyse
Hela cells [3]; blue-light activation, phalloidin in cell medium
  phalloidin influx, F-actin labeling: allowed phalloidin to permeate and bind F-actin; also recorded: delivers actin labels into living cells
Hela cells [3]; cells expressing GFP, illuminated intermittently for 1 hour
  GFP efflux: GFP left the cell
